Assay results reported in the supplement of paper PMC10724198.
± gives the standard deviation of the averaged measurements.

Test system: Saccharomyces cerevisiae
Test: protein stability index of tFT-peptide fusion (C-terminal peptide) (PSI (0-1 scale)); higher = more stable (slower turnover)
Conditions: genetic background: wild type; temperature: 30 C
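Note: PSI is a weighted mean of sequencing reads over stability bins, variants kept only with over 10 reads, mCherry proximal and sfGFP distal, peptide attached via GGGS linker.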

Row | Sequence | protein stability index
1 | APPLPPLFPPSP | 0.677 ± 0.047
2 | IGMICYGKDTQY | 0.726 ± 0.0073
3 | GKNIINSKITYK | 0.772 ± 0.043
4 | HPPLPPPPIVPS | 0.696 ± 0.067
5 | SRFFFSPRLCVP | 0.604 ± 0.033
6 | KLKITSKDKIIK | 0.671 ± 0.016
7 | PALPPPVLLRLP | 0.557 ± 0.062
8 | SSAPCLRIFVTR | 0.737 ± 0.062
9 | GCRGVWGWVGRG | 0.74 ± 0.084
10 | AKETSINKKALI | 0.6903 ± 0.0047
11 | GCSFVLCRGSNA | 0.675 ± 0.034
12 | IGGLAGFGSALT | 0.759 ± 0.12
13 | HPSRPARPTRHP | 0.806 ± 0.072
14 | FCPEGGYSVFYL | 0.719 ± 0.019
15 | KTQKKKKKNKNF | 0.51 ± 0.028
16 | CPGTSLVLPPLL | 0.688 ± 0.019
17 | RGPGRTPLGRQL | 0.68915 ± 0.00044
18 | GLLGFVLSKDST | 0.719 ± 0.052
19 | WTDHISEHLHTV | 0.742 ± 0.039
20 | PLLPFRYTRSGT | 0.68 ± 0.07
21 | REVGSTILAVVH | 0.645 ± 0.031
22 | QLFTAKHSDPLD | 0.7444 ± 0.0023
23 | RGSPCPQRAALH | 0.7 ± 0.035
24 | HPPTSPGGLRQP | 0.686 ± 0.0069
25 | GTGMHEGEPGEV | 0.686 ± 0.046

Row | Sequence | protein stability index
26 | EELTVLCGLLKT | 0.64 ± 0.04
27 | FGFRLFLPSFSA | 0.6433 ± 0.0029
28 | GWWGCGASVCGV | 0.72 ± 0.15
29 | ESALPFLYSLSG | 0.703 ± 0.021
30 | KKEKQKKKIKTK | 0.703 ± 0.055
31 | PEGLKKKKEKRI | 0.706 ± 0.049
32 | RIKNMNNNEEKR | 0.714 ± 0.2
33 | GGGGVWVSWCGW | 0.679 ± 0.013
34 | EKKKTKKKTIKK | 0.636 ± 0.03
35 | PLPRHSSPLPHI | 0.684 ± 0.0089
36 | CPPFLTPRLAPA | 0.778 ± 0.2
37 | EVYAGGESDVMS | 0.637 ± 0.029
38 | ASPRLTGCPNPR | 0.6863 ± 0.002
39 | RGYVSLSEGVAA | 0.676 ± 0.058
40 | LPAPRFLVPAFL | 0.637 ± 0.025
41 | FQGKRTKQEGVK | 0.692 ± 0.071
42 | KTEEERKKAEKE | 0.653 ± 0.076
43 | RTLYAGVVGGNG | 0.734 ± 0.086
44 | GSKLTLRLSEHF | 0.686 ± 0.025
45 | TEFFVFNRTQSL | 0.671 ± 0.088
46 | IRKIIHIDNGNT | 0.741 ± 0.096
47 | RGFPALLPAPAC | 0.753 ± 0.12
48 | LKTLKHRLRHLE | 0.732 ± 0.034
49 | VLHLVGFDADVV | 0.725 ± 0.021
50 | YRSPPPLRGLIP | 0.711 ± 0.088

Row | Sequence | protein stability index
51 | CGEALGVSWMTL | 0.684 ± 0.0038
52 | GGSGHGAGAVWG | 0.6979 ± 0.0057
53 | QGVGSHIPCGTP | 0.64 ± 0.023
54 | PSPLALRTPSFS | 0.692 ± 0.02
55 | GPSSVGWLFVVC | 0.553 ± 0.039
56 | CAVSFPLCLLPP | 0.6439 ± 0.0036
57 | GALSDSLRVYTP | 0.688 ± 0.041
58 | LFSFCQGCISFC | 0.715 ± 0.02
59 | EGGGGGGAPRVR | 0.752 ± 0.093
60 | AVFQEIPFGIPP | 0.696 ± 0.073
61 | PGSTCWLFEFLS | 0.711 ± 0.07
62 | KQKIKTDKYKKD | 0.656 ± 0.051
63 | LPPPLPSTRPVF | 0.6943 ± 0.005
64 | PPPPLVPLPASP | 0.688 ± 0.072
65 | SLPPTLPPRSCP | 0.6211 ± 0.0019
66 | NTGGVTRVIGCV | 0.704 ± 0.029
67 | PPFRSPPRHDPL | 0.662 ± 0.015
68 | PPPTAPPTTTTR | 0.696 ± 0.055
69 | MKPPIGGNKPGL | 0.726 ± 0.017
70 | MGYYDGIRYKEV | 0.735 ± 0.092
71 | VPPLPPDSCTVT | 0.699 ± 0.073
72 | SWVSSGTVILQE | 0.74 ± 0.077
73 | PPPTPPRPPPLP | 0.7059 ± 0.0022
74 | EKCCGAAVMARC | 0.561 ± 0.015
75 | PIPAPFFLAPPL | 0.731 ± 0.06

Row | Sequence | protein stability index
76 | CVFLGRMSFLAF | 0.602 ± 0.03
77 | GIKRKEKEKKNN | 0.615 ± 0.026
78 | YCTMHLQLLQHS | 0.578 ± 0.012
79 | PPHASRAPPFPR | 0.671 ± 0.047
80 | GDPVKCSNSKDK | 0.685 ± 0.012
81 | KTDNTRTQKMVR | 0.808 ± 0.011
82 | RSGGYPGLLLFN | 0.6227 ± 0.0053
83 | YLRSMIPKELAV | 0.605 ± 0.023
84 | EGGARGCGEGSQ | 0.656 ± 0.015
85 | LTILEPYFLLGP | 0.732 ± 0.21
86 | SSRFNVAPGGCR | 0.745 ± 0.11
87 | FACVLVLFPFFL | 0.641 ± 0.099
88 | SSIGPTECSYFS | 0.678 ± 0.088
89 | ESGPQWLGTFVT | 0.733 ± 0.0094
90 | RGRWGVYISSWV | 0.626 ± 0.048
91 | VVLWGAVSIVRT | 0.616 ± 0.028
92 | PASPTLRPYWDP | 0.645 ± 0.068
93 | IESKANPRRIEV | 0.696 ± 0.027
94 | KKKKKTKKKAEK | 0.701 ± 0.022
95 | SGHGFFMCLFRC | 0.552 ± 0.028
96 | DRNKRDERTSEE | 0.744 ± 0.026
97 | GVLSYCGFVTFG | 0.603 ± 0.02
98 | WRGRWVWGVGEV | 0.628 ± 0.069
99 | PESTPRVHSNDY | 0.691 ± 0.027
100 | PRLPPPPTPPLP | 0.649 ± 0.16

Row | Sequence | protein stability index
101 | AGYGGILRSRGG | 0.698 ± 0.059
102 | APPRPPPRPHPP | 0.571 ± 0.063
103 | LPPPPPPPPPSP | 0.82377 ± 0.00068
104 | LAARRHRACPPR | 0.67 ± 0.014
105 | SISIGVRHSRPP | 0.609 ± 0.033
106 | IKNRRTSKYLII | 0.548 ± 0.0058
107 | MCGENVSWSCRS | 0.685 ± 0.038
108 | GPLDEPRIWSHR | 0.669 ± 0.0095
109 | LVLERKVDSKRK | 0.761 ± 0.084
110 | CLVGSLTDIAWL | 0.756 ± 0.028
111 | PRPAPHTGPSPG | 0.613 ± 0.029
112 | CLYLLFGLLHVG | 0.545 ± 0.02
113 | KKARGYTLEQRR | 0.736 ± 0.051
114 | WFLCCFGGVSLV | 0.619 ± 0.0064
115 | GFPASVCGCMLW | 0.651 ± 0.047
116 | FGLCRSLESRQF | 0.6606 ± 0.0026
117 | PPATRSLSAASP | 0.722 ± 0.0095
118 | SNGTRGSKLPAI | 0.685 ± 0.055
119 | GRNIIARLNNMT | 0.5748 ± 0.0047
120 | PSRTSPLSHIPF | 0.676 ± 0.023
121 | GGTPIGAHVLLR | 0.661 ± 0.00077
122 | RGAVEAGGWRIG | 0.682 ± 0.0087
123 | GGWSIVQKRRGG | 0.7215 ± 0.0034
124 | PPRPPPLLPRTL | 0.707 ± 0.014
125 | GAECVSGWGGET | 0.709 ± 0.035

Row | Sequence | protein stability index
126 | LFPRFPPPAPPL | 0.723 ± 0.099
127 | FDVLGPRVVSWV | 0.633 ± 0.093
128 | WLCGSIGHAMLG | 0.739 ± 0.062
129 | GCVVSGCGAGVV | 0.5755 ± 0.0057
130 | LMLFCLGCDMSV | 0.576 ± 0.027
131 | DVAYSSSNAVHR | 0.669 ± 0.045
132 | GWGRGGFRVVVG | 0.712 ± 0.02
133 | CPSPPPIPLTLS | 0.6221 ± 0.001
134 | IKDESNLKKHKN | 0.715 ± 0.041
135 | VVGWGWGGVVRR | 0.763 ± 0.02
136 | RPDTGPPRRNRE | 0.715 ± 0.031
137 | IRMEYVNTVINK | 0.642 ± 0.049
138 | PRLSPPRSPSPP | 0.665 ± 0.0091
139 | GVTYEDFWGYCG | 0.797 ± 0.018
140 | LFPRPSILKGVP | 0.657 ± 0.091
141 | PSYSPPPHPVHR | 0.686 ± 0.05
142 | KKRKKKRTEPQP | 0.6421 ± 0.00099
143 | GCGGSREAVVNG | 0.662 ± 0.042
144 | LVFRSGWVSLIG | 0.641 ± 0.044
145 | GRRRSRGRPIDL | 0.754 ± 0.03
146 | SPPPMSPLLRPA | 0.653 ± 0.033
